{"source": "the nanobody polyreactivity screen of Harvey et al. (2022)", "data": [{"experiment": "yeast display, Sf9 membrane polyspecificity reagent, FACS + sequencing; frameworks hold sequencing errors", "how_it_was_run": "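After 36–48 hours of galactose induction, yeast (Saccharomyces cerevisiae BJ5465) displaying a synthetic nanobody library were stained at 4 °C for 1 hour with 10% biotinylated, detergent-solubilized Sf9 membrane reagent. Streptavidin microbeads enriched the stained cells before FACS sorting into low and high (top ~1%) gates on anti-HA and streptavidin fluorescence. Each clone's polyreactivity label reflects its gate of origin.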", "values": [{"sequence": "QVQIVESGGGLVQAGGSLRLSCAASGFIFGANAMGWYRQAPGKEREFVAAISSSGGRYELRRSVKGRFTISRDKAKNTVYLQMNSLKPEDTAVYYCATPYPTGRPRHYYWGQGTQVTVSS", "polyreactivity (PSR sort gate)": "high polyreactivity"}, {"sequence": "QVQIVESGGGLVQAGGSLRLSCAASGFTIPRYAMGWYRQAPGKERELVAAISRAGRTYYADSVKGRFTISRDNAKNTVYLLMTSLKPEDTAVYYCNSQYLKPGDYWGHGTQVTVSS", "polyreactivity (PSR sort gate)": "high polyreactivity"}, {"sequence": "QVQIVESGGGLVQAGGSLRLSCAASGFTSQFYAMGWYRQAPGKEMELVAAISSGSSTYYADSVKGRFTSSRDNAKNTVYLQMNSLKPEDTAVYYCATTHKTLRRYDSWGQGTKVTVSS", "polyreactivity (PSR sort gate)": "low polyreactivity"}, {"sequence": "QVQIVESGGGLVQAGGSLRLSCAASGIIFYRYAMGWSRQAPGKERELVAAITWSGVSTSYADSVKGRFTISRDNAKNTVYLQMNSLKPEVTAVYDCNKDPGTLYGDMDSWGQGTQVSVSS", "polyreactivity (PSR sort gate)": "low polyreactivity"}, {"sequence": "QVQIVESGGGLVQAGGSLRLSCAASGITLSYNAMGWYRPATEKDRELVAGISYSGGRTYYADSVKGRFTISRDNAKNTVYLQMYSLKPEVTAVYYCATDLYISFRYGGYFWGQGTQVTVSS", "polyreactivity (PSR sort gate)": "high polyreactivity"}, {"sequence": "QVQIVESGGGLVQAGGSLRLSCAASGLTFILYAMGWYRQAPGKERELVAAISYDGGSTYYADSVKGRFTISRDNAKNTVYLQMNSLKPEDTAVYYCAADSYYYQGYRRYNYDYWGQGTQVTVSS", "polyreactivity (PSR sort gate)": "high polyreactivity"}, {"sequence": "QVQIVESGGGLVQAGGSLRLSCAASGRIFIRYSMGWYRHAPGIERELVAAISSGGRTYYADSVKGRFTISRDNATNTVYLQMNSLNPEDTAVYYCARASSIARYDNWGQGTQVTVSS", "polyreactivity (PSR sort gate)": "high polyreactivity"}, {"sequence": "QVQIVESGGGLVQAGGSLRLSCAASGRIFRRYVMGWYRPAPGKERELVAAITKSGTSTYYADSVKGRFTISRDNAKNTVYLQMNSLKPEDTAVYYCAAVPYQSKYPRFGYWGQGTQVTVSS", "polyreactivity (PSR sort gate)": "high polyreactivity"}, {"sequence": "QVQIVESGGGLVQAGGSLRLSCAASGRIFYAYAMGWYRQAPGKERELVAAISSGGSTKYADSVKGRFTISRDNAKNTVYLQMNSLKPEDTAVYYCNADATALSFGTLFDYWGQGTQVTVSS", "polyreactivity (PSR sort gate)": "low polyreactivity"}, {"sequence": "QVQIVESGGGLVQAGGSLRLSCAASGRILWDYAMGWYRQATGKEWELVAAIDWSAGSTYYADSVKGRFTISRDTAKNTVYLQMNSLKPEDTAVYYCYIDYTYYYEDDFWGQGTQVTVSS", "polyreactivity (PSR sort gate)": "low polyreactivity"}, {"sequence": "QVQIVESGGGLVQAGGSLRLSCAASGRISKFYTMGWYRQAPGKERELVADISYSGGSTYYADSVKGRFTISRDIEKNTVYLQMNSLKPEDTAVYFCSVDGLQRAIDYWGQGTQVTVSS", "polyreactivity (PSR sort gate)": "high polyreactivity"}, {"sequence": "QVQIVESGGGLVQAGGSLRLSCAASGRSYAINAMGSYRQAPGKERELDASITTRDSSTYYADSVKGRFTISRDNAKNTVYLHMNSLKPEDTAVYYCAKVKLVTYLYRLFVYGSYYWGQGTLVTVSS", "polyreactivity (PSR sort gate)": "low polyreactivity"}, {"sequence": "QVQIVESGGGLVQAGGSLRLSCAASGRTFGIYAMGWYRQAPGKERELVDAIRWRDGSTYYADSVKGRFTISRDNAKNTVYLQMTSLKPEDTAVYYCAATSRVYVRGSYWKYGYWGQGTQVTVSS", "polyreactivity (PSR sort gate)": "high polyreactivity"}, {"sequence": "QVQIVESGGGLVQAGGSLRLSCAASGRTFQYYTMGWSRQAPGKEREFVAAIRDSGGSTYYADSVKGRFTISRDNAKNTVYLQMNSLKPEDTAVYYCAAYRPRKYDYWGQGTQVTVSS", "polyreactivity (PSR sort gate)": "high polyreactivity"}, {"sequence": "QVQIVESGGGLVQAGGSLRLSCAASGRTFRYYTMGWYIQAPGKERELVAVISRSGGSTYYADSVKGRFTISRDNAKNTVYLQMNSLKPEDTAVYYCNAGYWRFIDSYDYWGPGTQVTVSS", "polyreactivity (PSR sort gate)": "high polyreactivity"}, {"sequence": "QVQIVESGGGLVQAGGSLRLSCAASGRTFSKYAMGWYRQSTWKERELVASITWSGGTTNYADSVKGRVTISRDNAKNTVYLQMNSLKPEDTAVFYCNAQIASDGFNPGKSDYWGLGTQVTVSS", "polyreactivity (PSR sort gate)": "low polyreactivity"}, {"sequence": "QVQIVESGGGLVQAGGSLRLSCAASGRTFYYNAMGWYRQAPGKERELVAAITWSGGGTYYADSVKGRFTISRDNAKNTVYLQMNSLKPEDTAVYYCAKTPGWTDYDYWGQGTQVTVSS", "polyreactivity (PSR sort gate)": "high polyreactivity"}, {"sequence": "QVQIVESGGGLVQAGGSLRLSCAASGRTLKFNTMGWYRQAPGKERELVAAISGSGGSTYYADSVKGRFTISRDNAKNTVYLQMNSLKPEDTAVYYCAKYGVLRGYGYDYWGQGTQVTVSS", "polyreactivity (PSR sort gate)": "high polyreactivity"}, {"sequence": "QVQIVESGGGLVQAGGSLRLSCAASGSIFASYTMGWYRQAPGKERELGATIRRTGSTYYADSVKGRFTISRDNAKNTVYLQMNSLKPDDTAVYYCAAGLRRKQGLTSGYEYGGQGTQVTVSS", "polyreactivity (PSR sort gate)": "high polyreactivity"}, {"sequence": "QVQIVESGGGLVQAGGSLRLSCAASGSIFDGNAMGWYRQAPGKERELVAAITWRGTRTYYADSVKGRFTISRDNAKNTVYLQMNSLKPEDTAVYYCAATSYSTYILGGTRRYDYWGQGTLVTVSS", "polyreactivity (PSR sort gate)": "high polyreactivity"}, {"sequence": "QVQIVESGGGLVQAGGSLRLSCAASGSIFDKNAMGWYRQAPGKEREFVAAITWSDGNTYYADSVKGRFTISRDNAKNTVYLQMNSLKREHTAVYYCNADALGVFWDRGGWFDDYWGQGTQVTVSS", "polyreactivity (PSR sort gate)": "low polyreactivity"}, {"sequence": "QVQIVESGGGLVQAGGSLRLSCAASGSIFGTYAMGRYRQAPGKERELVAAINSGDSTYYADSVKGRFTISRDNAKNTVYLQMNSLKPEDTAVYYCGARETYWSGYFIYYYWGQGTQVNVSS", "polyreactivity (PSR sort gate)": "high polyreactivity"}, {"sequence": "QVQIVESGGGLVQAGGSLRLSCAASGSIFRRYAMGWYRQEPGKERELVAAISSNGGSTYNADSVKGRFTISRDNAKNTVYLQMNSLKPEDTAVYYCNAPPLYRDEYWGQGTQVSVSS", "polyreactivity (PSR sort gate)": "high polyreactivity"}, {"sequence": "QVQIVESGGGLVQAGGSLRLSCAASGSIFTFYAMGWYRQAPGKERELVATINRIGGNTYYADSVKGRFTISRDNAKNTVYLQINSLKPEDTAVYYCAAKPTYRGYGYGSWGQGTQVTVSS", "polyreactivity (PSR sort gate)": "low polyreactivity"}, {"sequence": "QVQIVESGGGLVQAGGSLRLSCAASGSIFTYYAMGWYRQAPGKERELVAAINWSGGSTYYADSVKGRFTISRDNAKNTVYLQMNSLKPEDTAVYYCATDYYARRHSPRYDYWGQGTQLTVSS", "polyreactivity (PSR sort gate)": "low polyreactivity"}, {"sequence": "QVQIVESGGGLVQAGGSLRLSCAASGSIFWFYAMGWSRQAPGKERELVAAITWNGGRTYYADSVKGRFTISRDNAKNTVYLQMNCLKPEDTAVYYCNKVSGYDVDYWGHGTQVTVSS", "polyreactivity (PSR sort gate)": "high polyreactivity"}, {"sequence": "QVQIVESGGGLVQAGGSLRLSCAASGSIFWPYTMGWYRQAPGKERELVAAISYSGGRTYYADSVKGRFTISRDNAKNTVYLQMNRLKPEDTAVYYCAAGTYSRGSREDYWGQGTQVTVSS", "polyreactivity (PSR sort gate)": "high polyreactivity"}, {"sequence": "QVQIVESGGGLVQAGGSLRLSCAASGSIFYRNAMGWYRQAPGKERELVAAISSDGSTNYADSVKGRFTISRDNAKNTVYLQMNSLKPEDTAVYYCAAPWTQILDYWGQGTQVTVSS", "polyreactivity (PSR sort gate)": "low polyreactivity"}, {"sequence": "QVQIVESGGGLVQAGGSLRLSCAASGSISVANAMGWYRQAPGKDRELVAAITDSGDDTYYADSVKGRFTISRDIAKNTVYLQMNSLKPEDTAVYYCAVEAWSVPPYDYWGQGTQVTVSS", "polyreactivity (PSR sort gate)": "low polyreactivity"}, {"sequence": "QVQIVESGGGLVQAGGSLRLSCAASGSTFDDYVMGWYRQAPGKEREFVAAISTNGGSTYYADSVKGRFTISRDNAKNTVYLQMNSLKPEDTAVYYCAAESQDFYAILGLYDYWGQGTQVTVSS", "polyreactivity (PSR sort gate)": "low polyreactivity"}, {"sequence": "QVQIVESGGGLVQAGGSLRLSCAASGSTFDYYAMGWYRQAPGKERELVAGISASGGSTYYADSVKGRFTISRDNAKNTVYLQMNRMKPEDTAVYYCASYYKPPGYDYWGQGTQVTVSS", "polyreactivity (PSR sort gate)": "low polyreactivity"}, {"sequence": "QVQIVESGGGLVQAGGSLRLSCAASGSTFSRYAMGWYRQAPGKERELVAVITKSGGRTYYADSVKGRFRISRDNAKNTVYLQKHSLKAEDTADYYCAAYPNKSQTADGYWGQGTQVTVSS", "polyreactivity (PSR sort gate)": "high polyreactivity"}, {"sequence": "QVQIVESGGGLVQAGGSLRLSCAASGSTIIRNAMGWSRQAPRKERELVAAISTSGGRTHYADSVKGRFTISRDNAKNTVYLQMNSLKPEDTAVYYCASRGKGHYYYWGQGTQVTVSS", "polyreactivity (PSR sort gate)": "high polyreactivity"}, {"sequence": "QVQIVESGGGLVQAGGSLRLSCAASGTTFDAYAMGWYRQAPGKERELVAAITNAGSTNYADSVKGRFTISRDNAKNTVYLQMNSLKPEETAVYYCATDWYHRYLDGRYDYWGQGTQETVSS", "polyreactivity (PSR sort gate)": "low polyreactivity"}, {"sequence": "QVQIVESGGGLVQAGGSLRLSCAASGTTFRFYAMGWYRQAPGKERELVAAIRRGGSTYYADSVKGRFTISRDNAKNTVYLQMNSLKPEDTAVYFCAAEPGYYSRPDYRVYRLYYWGLGTQVTVSS", "polyreactivity (PSR sort gate)": "high polyreactivity"}, {"sequence": "QVQIVESGGGLVQAGGSLRLSCAASVRTQRYYDMGCYRQAPVKERELVAAISSGGSTYYGDSLKGRFSISRDNAKNTVYLEMNSLKPEDTEVYYCAKRVSNWVSGGGYYYWGQCTQVTVSS", "polyreactivity (PSR sort gate)": "high polyreactivity"}, {"sequence": "QVQIVESGGGLVQAGGSLRLSCAAYGSIFVRNVMGWYRQAPGKERELVATIRYRGGSTYYADSVKGRFTISRDNAKNTVYLQMNSLKPEDTAVYYCNARYLWADEYYYWGQGTQVTVSS", "polyreactivity (PSR sort gate)": "low polyreactivity"}, {"sequence": "QVQIVESGGGLVQAGGSLRLSCAPSGSTFGSNAMGWYRQAPGKERELVAAIRWSGGSTYYADSVKGRFTISRDNAKNTVYLQMNSLKPEDTAVYYCNAVYGRQYRGYNYKYYYWGQGTQVTVSS", "polyreactivity (PSR sort gate)": "high polyreactivity"}, {"sequence": "QVQIVESGGGLVQAGGSLRLSCGASGRIFYNYALGWYRQAPGKERELVAAISGSGGSTYYADSVKGRFTISRDNAKNTVYLQMNSLKPEDTAVYYCSTSGPQYYSRNFDYWGQGTQVTVSS", "polyreactivity (PSR sort gate)": "low polyreactivity"}, {"sequence": "QVQIVESGGGLVQAGGSLRLSSAASGITFRHYAMGWYRQAPGKERELVAAITSRGGSTYYADSVKGRFTISRDNAKNTVYLQMNSLKPEDTAVYYCAKGTVHSRPDFGRGWYRWDDYWGQGSQVTVSS", "polyreactivity (PSR sort gate)": "high polyreactivity"}, {"sequence": "QVQIVESGGGLVQAGGSLRLSSASSGRTLRQYAMGWYRPAHWKERDLVAAIRTNGGRTYYADSVMRRFTISRVNSKNTVYLQMNSLKPEDTAVYYCAVYAVVLGVLFDYWGQGTQVTVSS", "polyreactivity (PSR sort gate)": "high polyreactivity"}, {"sequence": "QVQIVESGGGLVQAGGSLRLTCAASGGIFARYTMGWYRQAPGKERELVATITSGGGTNYADSVKGRFTISRDNAKNTVYLQMISLKPEDTAVYYCAASPRAVSYGPDDRQQYDYWGQGSQVTVSS", "polyreactivity (PSR sort gate)": "low polyreactivity"}, {"sequence": "QVQIVESGGGLVQAGGSLRVSCAASGITFGNYDMGWYRQAPGKERELVAAITGSGGRTYYADSVKGRFTISRDNEKNTVYLQMNSLKPEDTAVYYCNRRQYGRKKQYDYWGQGTQVTVSS", "polyreactivity (PSR sort gate)": "high polyreactivity"}]}]}
